Test results: the supplement of paper PMC12042874
± gives the uncertainty stated by the source.

Assay: amyloid nucleation score (Sup35N fusion, yeast selection) (log enrichment); library NNK3; higher = more nucleation; inactive = no reads after selection
How it was run: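 Libraries of peptides of 20 random codons fused to Sup35N were expressed in psi-negative yeast and induced 24 hours with 100 μM copper sulfate. Selection was 7 days at 30°C on medium lacking adenine and uracil, and plasmid inserts were Illumina-sequenced before and after selection. Nucleation score is the DiMSum log enrichment of output over input reads, centred on the mode score of non-aggregating sequences, and sequences with under 100 input reads were left out.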

Substance	amyloid nucleation score
IGPIWVPYHMSIIRSLLFGI	inactive
IGRVTSMGRMLHGNW	inactive
IGTDWRARAMAALYI	inactive
IGTSAWLEKRASLLVCMKKA	inactive
IGVIWRFVLWSGPRTDSQVS	inactive
IGVQATVICYWRIMNRGHKR	inactive
IGYVMFGTSSSAFRITYISK	inactive
IHCSDVGALRMYVPSTGPFS	-0.213 ± 0.64
IHDMVQYERCDNRNSNRVHE	inactive
IHILTKVWFSCVRRSLS	inactive
IHNGKDTLAVVWYGFLIMFW	inactive
IHPPSGYPGSGLSLCCSKNS	inactive
IHRNNNFFRRGYVWSYEEHH	inactive
IHSDLTVSCNIYWKSY	0.922 ± 0.14
IHTQAFMGMFSLHWNHVFDL	inactive
IHYRANRCRRYCAFIYKAN	inactive
IIDYRDQRVLESLRFYVLCS	inactive
IIFLQIPNLFMGNKTRQKGA	inactive
IIFNFFSRVLELLMLGYPYT	inactive
IIHEFFSTQLILYDCIDRWF	inactive
IIHLNLSNVWYTPSGWYRVC	2.3 ± 0.063
IILQNFPNRKYMCLGAKMAS	inactive
IILRFDGFTMSSPRNLVIDG	inactive
IILRTWVSTLQSNSAIEVTL	inactive
IIPKRLDVR	-0.397 ± 0.7
IISHKQRSRVIVCSGS	inactive
IISMVCED	0.297 ± 0.32

Substance	amyloid nucleation score
IISSSL	inactive
IIVLPEKRPR	inactive
IKAVSYTVSVSPPCFSSKSH	0.402 ± 0.18
IKCDLRSSVAWDLSVILYSF	inactive
IKDGFQGNVFFAVDCFVAYD	inactive
IKGIPKSIGSSSLGLHNHTV	inactive
IKKQYINSFIDSATMKGIKV	inactive
IKNEQSARRGASSCGGTADK	inactive
IKWEQRLVVYIAYKKHRWQR	inactive
ILAHAHYVYVALARWPTYGY	-0.35 ± 0.98
ILCANGYRSVFSYFLFGCAY	inactive
ILCCTCYLRDIDMVVGACDG	1.62 ± 0.063
ILDFDFTSLPNMMRGCRSHL	inactive
ILFNENITKMSLFNCDKFIC	1.1 ± 0.15
ILGFLCPLFSFFFSGGYFLG	inactive
ILGIIMI	inactive
ILGIRYVIRINFLTRVRIHN	inactive
ILHHTWYMF	inactive
ILIGPSGFMYLDVSFFQFQR	0.856 ± 0.25
ILILFYLRFHNIRRYTCTFR	inactive
ILILS	inactive
ILLALN	0.03 ± 0.88
ILLGIEAPCVSITYYFKTFL	1.32 ± 0.13
ILLSVSWGAR	1.49 ± 0.13
ILMPKTVVTVYISNMCDYSQ	2.58 ± 0.071
ILPPNWATSRVNAAGWFLGQ	inactive
ILPSYDLFEVVWLVRAD	inactive

Substance	amyloid nucleation score
ILPTAKKSKCGSHL	inactive
ILRFGHPWDRRSK	inactive
ILRPPKAA	inactive
ILSIHSGFCWWMRGALNGKL	1.45 ± 0.14
ILSSGLGKHTGLIIAYESAR	inactive
ILVAGTAV	inactive
ILVLTKRVCYGSLFRYAWAK	inactive
ILVVGALDLLCGVLTEYSCQ	1.1 ± 0.1
ILWMVSMLRYIIEG	inactive
ILWSILVYLTLITVLCLCHF	0.444 ± 0.26
ILYLRVYITFVLIGNLEGFR	inactive
ILYSSYS	inactive
ILYWVYCSYSSNHDLYLFII	inactive
IMGALLTYSRTTGRVNYRMW	inactive
IMICILHLC	inactive
IMIGKVLFFGVATRMSVLRL	inactive
IMLLVGAWTVSYNSCGSDAR	inactive
IMQFGDFYIIQRERRSYVLW	2.25 ± 0.087
IMSSVVYECFKVLRHSVMSG	inactive
IMVRSIISGFRLMESRKLDS	inactive
INEWFGSKDFAETGHLEVRY	inactive
INGSNNATCWVSLSIMKARI	inactive
INIYSKELSNDGFSTLHYFM	inactive
INLGMP	-0.279 ± 0.52
INLHFDITDWANNDLENKGH	inactive
INLLVSVKGWYYVAPTAWYE	1.16 ± 0.15
